Data: patent US20140322218A1 (Amgen, published 2014)
Positions count from the first letter of the chain named. In names and notes the source's numbering stands. Each block holds one binder with its values, some of them ahead of it.

Assays:
[1] = biological target: T1, muCDH19(1-43)::FLAG::muCDH19(44-770)::huCDH19(271), on 293T cells (mouse/human chimera); assay: FACS, transfected 293T
T1 construct: Entry holds leader (1-43), Flag tag and CDH19 part; leader left out; also called Hu EC3a
T1 chain: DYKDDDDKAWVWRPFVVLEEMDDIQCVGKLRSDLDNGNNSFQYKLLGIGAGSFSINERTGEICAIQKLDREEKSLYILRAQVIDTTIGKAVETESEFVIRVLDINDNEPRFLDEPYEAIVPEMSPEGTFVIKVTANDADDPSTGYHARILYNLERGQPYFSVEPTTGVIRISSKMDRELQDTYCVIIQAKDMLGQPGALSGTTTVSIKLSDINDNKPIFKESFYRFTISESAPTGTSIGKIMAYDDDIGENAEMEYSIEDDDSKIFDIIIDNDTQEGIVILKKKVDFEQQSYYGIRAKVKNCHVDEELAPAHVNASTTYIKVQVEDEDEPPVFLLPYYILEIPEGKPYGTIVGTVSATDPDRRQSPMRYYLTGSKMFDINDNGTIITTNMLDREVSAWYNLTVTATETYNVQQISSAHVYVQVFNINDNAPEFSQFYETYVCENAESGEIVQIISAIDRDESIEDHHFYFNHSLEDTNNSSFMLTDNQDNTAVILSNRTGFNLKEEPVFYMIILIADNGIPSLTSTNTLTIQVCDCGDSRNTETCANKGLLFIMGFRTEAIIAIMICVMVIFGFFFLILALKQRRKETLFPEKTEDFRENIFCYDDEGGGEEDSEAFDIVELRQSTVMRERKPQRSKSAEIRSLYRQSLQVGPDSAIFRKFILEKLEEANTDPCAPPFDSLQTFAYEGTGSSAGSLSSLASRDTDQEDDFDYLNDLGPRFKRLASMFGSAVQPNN

Cyno Cadherin-19 = biological target: T2, Cyno Cadherin-19 (cynomolgus monkey (Macaca fascicularis), UniProt Q9H159 44-772 (human entry)); assay: FACS, recombinant cyno CDH19
T2 construct: also called cyno CDH19; cynomologous CDH-19
T2 chain: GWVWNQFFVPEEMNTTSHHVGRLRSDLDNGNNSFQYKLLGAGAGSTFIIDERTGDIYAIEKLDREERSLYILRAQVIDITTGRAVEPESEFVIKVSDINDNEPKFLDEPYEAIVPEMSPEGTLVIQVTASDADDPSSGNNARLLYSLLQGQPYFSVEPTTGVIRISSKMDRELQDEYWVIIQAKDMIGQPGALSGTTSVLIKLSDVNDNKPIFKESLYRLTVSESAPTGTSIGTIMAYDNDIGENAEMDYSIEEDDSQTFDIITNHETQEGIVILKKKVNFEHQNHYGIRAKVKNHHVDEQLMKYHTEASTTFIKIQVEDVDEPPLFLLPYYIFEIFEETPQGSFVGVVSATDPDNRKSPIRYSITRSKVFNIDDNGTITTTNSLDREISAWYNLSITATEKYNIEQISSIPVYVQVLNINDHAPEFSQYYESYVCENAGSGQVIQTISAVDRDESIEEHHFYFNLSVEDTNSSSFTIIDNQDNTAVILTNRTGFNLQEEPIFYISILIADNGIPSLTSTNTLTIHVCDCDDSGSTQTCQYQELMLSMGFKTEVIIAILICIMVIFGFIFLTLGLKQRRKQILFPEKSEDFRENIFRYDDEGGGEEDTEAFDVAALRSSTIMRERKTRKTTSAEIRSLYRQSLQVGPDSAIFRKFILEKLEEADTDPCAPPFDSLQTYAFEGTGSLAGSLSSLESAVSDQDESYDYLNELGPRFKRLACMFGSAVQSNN

[2] = biological target: T3, muCDH19(44-139)::huCDH19(142-364)::muCDH19(363-770), Flag-tagged, on 293T cells (human/mouse chimera); assay: FACS, transfected 293T
T3 construct: also called Hu EC2-3; C137847
From the text: (§1) The experiment included assaying the anti-CDH19 antibodies against mouse Cadherin19 to determine suitability for binning on these human/mouse chimeras.

[3] = biological target: T4, muCDH19(44-247)::huCDH19(250-364)::muCDH19(363-770), Flag-tagged, on 293T cells (human/mouse chimera); assay: FACS, transfected 293T
T4 construct: also called Hu EC3; C137911
From the text: as §1

[4] = biological target: T5, rhCDH19(1-43)::FLAG::rhCDH19(44-141)::raCDH19(140-247)::rhCDH19(250-772), on 293T cells (rhesus macaque/rat chimera, UniProt Q9H159 44-772 (human entry)); assay: FACS, transfected 293T
T5 construct: Entry holds leader (1-43), Flag tag and CDH19 part; leader left out; also called ra EC2 (rhesus backbone)
T5 chain: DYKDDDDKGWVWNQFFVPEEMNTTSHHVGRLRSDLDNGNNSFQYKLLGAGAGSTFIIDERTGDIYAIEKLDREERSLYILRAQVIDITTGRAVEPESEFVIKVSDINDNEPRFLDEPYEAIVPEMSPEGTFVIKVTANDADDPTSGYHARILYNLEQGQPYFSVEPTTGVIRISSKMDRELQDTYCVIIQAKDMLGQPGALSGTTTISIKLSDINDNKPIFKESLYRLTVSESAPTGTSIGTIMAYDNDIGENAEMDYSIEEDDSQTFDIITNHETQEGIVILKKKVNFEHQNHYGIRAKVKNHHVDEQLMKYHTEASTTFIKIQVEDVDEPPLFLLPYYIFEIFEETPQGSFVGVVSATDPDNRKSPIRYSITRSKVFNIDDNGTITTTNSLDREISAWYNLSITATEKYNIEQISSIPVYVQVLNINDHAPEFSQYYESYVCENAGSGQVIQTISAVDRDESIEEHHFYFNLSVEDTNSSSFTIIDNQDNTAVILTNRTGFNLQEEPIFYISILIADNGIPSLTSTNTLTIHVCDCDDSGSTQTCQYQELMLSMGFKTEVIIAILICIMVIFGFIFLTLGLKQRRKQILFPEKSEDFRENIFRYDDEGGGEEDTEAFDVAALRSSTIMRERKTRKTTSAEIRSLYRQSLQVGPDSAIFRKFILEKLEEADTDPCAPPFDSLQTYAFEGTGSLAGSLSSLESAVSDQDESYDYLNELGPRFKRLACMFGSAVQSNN
Method: The following binding assay was completed in presence of 2 mM CaCl2. […] Cells were then washed one time and the amount of cell associated Alexa647-labelled Ab was quantitated by flow cytometry. The experiments included mock transfected controls.

binding result [1]: no binding (tested: 5 ug/ml) | binding result (Cyno Cadherin-19): binds | binding result [2]: binds | binding result [3]: binds
B1: hu anti-<huCDH19> 4B10 VH::huIgG1z / 4B10 VL::huKLC (Ab ID 13590) (antibody, V domains shown)
VH: QVQLVESGGGVVQPGRSLRLSCAASGFTFSSYDMHWVRQAPGKGLEWVAVISYDGTNEYYADSVKGRFTISRDTSKNTLYLQMNSLRAEDTAVYYCARERYFDWSFDYWGQGTLVSVSS
VL: EIVLTQSPGTLSLSPGERATLSCRASQSVSNTYLAWYHQRPGQAPRLLIYGASSRATGIPDRFSGSGSGTDFALTISSLEPEDFAVYYCQQYSNSWTFGQGTKVEIKR

binding result [4]: no binding (tested: 5 ug/ml)
B4: hu anti-<huCDH19> 25F8.1 (1-469)(F90Y) VH::huIgG1z / 25F8.1 (1-235)(K45Q,S102A,D111E) VL::huLLC-C2 (Ab ID 14096) (antibody, V domains shown)
VH: QVQLVQSGAEVKKPGASVKVSCKASGYTFTSYYIHWVRQAPGQGLEWMGIINPSGGSTRYAQKFQGRVTMTRDTSTSTVYMELSSLRSEDTAVYYCARGGIQLWLHFDYWGQGTLVTVSS
VL: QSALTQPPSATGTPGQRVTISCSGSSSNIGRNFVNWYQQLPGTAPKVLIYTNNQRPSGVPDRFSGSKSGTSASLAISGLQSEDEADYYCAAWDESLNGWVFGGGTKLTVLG
notes: Engineered variant of 25F8

binding result [1]: binds | binding result (Cyno Cadherin-19): binds | binding result [2]: binds | binding result [3]: binds
B6: anti-CDH19 antibody 2G6 (Ab ID 13588) (antibody, human IgG1, lambda, V domains shown)
VH: QVQLVESGGGVVQPGRSLRLSCAASGFTFSSYGMHWVRQAPGKGLEWVAFIWYDGSNKYYADSVKDRFTISRDNSKNTLYLQMKSLRAEDTAVYYCARRAGIIGTIGYYYGMDVWGQGTTVTVSS
VL: SYELTQPPSVSVSPGQTASITCSGDRLGEKYTCWYQQRPGQSPLLVIYQDTKRPSGIPERFSGSNSGNTATLTISGTQAMDEADYYCQAWDSSTVVFGGGTKLTVLG

Continued, binder first:

B2: anti-CDH19 antibody 4A2 (Ab ID 13592) (antibody, human IgG1, kappa, V domains shown)
VH: QVQLQESGPGLVKPSQTLSLTCTVSGGSISSSGYYWSWIRQHPGKGLEWIGYIYYTGSAYYNPSLKSRVTISVDTSKNQFSLKLSSVTAADTAVYYCARDGSSGWYFQYWGQGTLVTVSS
VL: EIVLTQSPGTLSLSPGERATLSCRASRNISSSYLAWYQQKPGQAPRLLIYGPSSRATGIPDRFSGSGSGTDFTLTISRLEPEDFTVYYCQQYGSSFTFGPGTKVDIKR
binding result (Cyno Cadherin-19): binds

B3: hu anti-<huCDH19> 4A9 VH::huIgG1z / 4A9 VL::huLLC-C1 (Ab ID 13589) (antibody, V domains shown)
VH: QVQLQESGPGLVKPSETLSLTCTVSGGSISGYYWSWIRQPPGKGLEWFAYFSYSGSTNYNPSLKSRVTLSVDTSKNQFSLKLSSVTAADTAVYYCARNWAFHFDFWGQGTLVTVSS
VL: QSVLTQPPSVSGAPGQRVTISCTGSSSNIGTGYAVHWYQQFPGTAPKLLIYGNNNRPSGVPDRFSGSKSGTSASLAITGLQAEDEADYYCQSYDSRLSGWVFGGGTKLTVLG
notes: Recombinant fully human IgG1
binding result (Cyno Cadherin-19): binds | binding result [4]: no binding (tested: 5 ug/ml)

B5: hu anti-<huCDH19> 26D1.1 VH::huIgG1z / 26D1.1 VL::huLLC-C2 (Ab ID 13882) (antibody, V domains shown)
VH: B4 VH with G26R, I34M, H35S, N52H, S57D, R59T, R72G, Q102K
VL: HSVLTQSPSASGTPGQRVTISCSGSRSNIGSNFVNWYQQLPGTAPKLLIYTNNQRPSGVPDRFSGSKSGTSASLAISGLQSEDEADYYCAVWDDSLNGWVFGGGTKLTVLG
binding result (Cyno Cadherin-19): binds | binding result [4]: no binding (tested: 5 ug/ml)
